Laboratory results reported in patent publication US20120094909A1 (Bristol-Myers Squibb, published 2012).

Columns and labels:
[1] = target: T1, human PCSK9 (proprotein convertase subtilisin kexin type 9) (human, UniProt Q8NBP7 31-692); assay: cell-based or functional assay
[2] = target: T1, human PCSK9 (proprotein convertase …); assay: PCSK9:EGFA FRET, competitor EGFA peptide

Row | Binder | LDLR Depletion (% inhibition at 75 nM) [1] [%] | EC50 [2] [nM] | LDLR Depletion EC50 [1] [nM]
1 | 2451G01 (designed binder) MGVSDVPRDLEVVAATPTSLLISWDAPAGGYGYYRITYGETGGNSPVQEFTVPSSKGTATISGLKPGVDYTITVYAVEFDFPGSGYYHRPISINYRTEIDKPSQHHHHHH | 90.8 | 3.8 | –
2 | 2451H01 (designed binder) MGVSDVPRDLEVVAATPTSLLISWDAPAAGYGYYRITYGETGGNSPVQEFTVPVSKGTATISGLKPGVDYTITVYAVEYDFPGSGYYHRPISINYRTEIDKPSQHHHHHH | 95.8 | 2.8 | –
3 | 1922G04(R25D) (designed binder) MGVSDVPRDLEVVAATPTSLLISWDPPSHAYGYYRITYGETGGNSPVQEFTVPIGKGTATISGLKPGVDYTITVYAVEYPWKGSGYYHRPISINYRTGSGSHHHHHH | – | 2.5 | 29
4 | 1922G04(R25E) (designed binder) MGVSDVPRDLEVVAATPTSLLISWEPPSHAYGYYRITYGETGGNSPVQEFTVPIGKGTATISGLKPGVDYTITVYAVEYPWKGSGYYHRPISINYRTGSGSHHHHHH | – | 3.5 | 29
5 | 2381D02 (designed binder) MGVSDVPRDLEVVAATPTSLLISWEPFSRLPGGGEYYRITYGETGGNSPLQQFTVPGSKGTATISGLKPGVDYTITVYAVEYPYDHSGYYHRPISINYRTEIDKPSQHHHHHH | 185 | 3.1 | –
6 | 2381A04 (designed binder) MGVSDVPRDLEVVAATPTSLLISWEPFSRLPGGGEYYRITYGETGGNSPLQQFTVPGSKGTATISGLKPGVDYTITVYAVEYPYPFSGYYHRPISINYRTEIDKPSQHHHHHH | 100 | 3.3 | –
7 | 2381B06 (designed binder) MGVSDVPRDLEVVAATPTSLLISWEPFSRLPGGGEYYRITYGETGGNSPLQQFTVPGSKGTATISGLKPGVDYTITVYAVEYPYPHSGYYHRPISINYRTEIDKPSQHHHHHH | 120 | 3.5 | –
8 | 2381G03 (designed binder) MGVSDVPRDLEVVAATPTSLLISWEPFSRLPGGGEYYRITYGETGGNSPLQQFTVPGSKGTATISGLKPGVDYTITVYAVEFPYAHSGYYHRPISINYRTEIDKPSQHHHHHH | 70.2 | 3.4 | –
9 | 2381H03 (designed binder) MGVSDVPRDLEVVAATPTSLLISWEPFSRLPGGGEYYRITYGETGGNSPLQQFTVPGSKGTATISGLKPGVDYTITVYAVEYPYAHSGYFHRPISINYRTEIDKPSQHHHHHH | 89.8 | 3.4 | –
10 | 2381A08 (designed binder) MGVSDVPRDLEVVAATPTSLLISWDAPADGGYGYYRITYGETGGNSPVQEFTVPGSKGTATISGLKPGVDYTITVYAVEYDFPGAGYYHRPISINYRTEIDKPSQHHHHHH | 91.4 | 3.6 | –
11 | 2381B10 (designed binder) MGVSDVPRDLEVVAATPTSLLISWDAPAGGGYGYYRITYGETGGNSPVQEFTVPVSKGTATISGLKPGVDYTITVYAVEYNFIGAGYYHRPISINYRTEIDKPSQHHHHHH | 96.4 | 7.3 | –
12 | 2381C08 (designed binder) MGVSDVPRDLEVVAATPTSLLISWDAPADGAYGYYRITYGETGGNSPVQEFTVPVSKGTATISGLKPGVDYTITVYAVEFPYPFAGYYHRPISINYRTEIDKPSQHHHHHH | 15.3 | 0.7 | –
13 | 2382A01 (designed binder) MGVSDVPRDLEVVAATPTSLLISWAAPAGGGYGYYRITYGETGGNSPVQEFTVPVSKGTATISGLKPGVDYTITVYAVEYDFPGAGYYHRPISINYRTEIDKPSQHHHHHH | 120 | 12.9 | –
14 | 2382E04 (designed binder) MGVSDVPRDLEVVAATPTSLLISWDAPAGGGYGYYRITYGETGGNSPVQEFTVPVSKGTATISGLKPGVDYTITVYAVEFTFPGAGYYHRPISINYRTEIDKPSQHHHHHH | 61.5 | 3 | –
15 | 2382F02 (designed binder) MGVSDVPRDLEVVAATPTSLLISWDAPAGGGYGYYRITYGETGGNSPVQEFTVPVSKGTATISGLKPGVDYTITVYAVEFDFPGSGYYHRPISINYRTEIDKPSQHHHHHH | -6.3 | 2.6 | –
16 | 2382F03 (designed binder) MGVSDVPRDLEVVAATPTSLLISWDAPAADAYGYYRITYGETGGNSPVQEFTVPVSKGTATISGLKPGVDYTITVYAVEFNFPGAGYYHRPISINYRTEIDKPSQHHHHHH | 88.6 | 2.7 | –
17 | 2382H04 (designed binder) MGVSDVPRDLEVVAATPTSLLISWDAPAAGGYGYYRITYGETGGNSPVQEFTVPSSKGTATISGLKPGVDYTITVYAVEYDFPGAGYYHRPISINYRTEIDKPSQHHHHHH | 68.2 | 3.2 | –
18 | 2382G03 (designed binder) MGVSDVPRDLEVVAATPTSLLISWDAPAEAEAYGYYRITYGETGGNSPVQEFTVPVSKGTATISGLKPGVDYTITVYAVEYVFPGAGYYHRPISINYRTEIDKPSQHHHHHH | 77.8 | 2.7 | –
19 | 2381G06 (designed binder) MGVSDVPRDLEVVAATPTSLLISWSEKLDGKARRGYYRITYGETGGNSPVQQFTVPGSKGTATISGLKPGVDYTITVYAVEFPYDHSGYYHRPISINYRTEIDKPSQHHHHHH | 57.7 | 9 | –
20 | 2381H01 (designed binder) MGVSDVPRDLEVVAATPTSLLISWSPRDSTGLVRRGYYRITYGETGGNSPVQQFTVPGSKGTATISGLKPGVDYTITVYAVEYPYDHSGYYHRPISINYRTEIDKPSQHHHHHH | 22.2 | 4 | –
21 | 2381H06 (designed binder) MGVSDVPRDLEVVAATPTSLLISWGDVRTNEARQGYYRITYGETGGNSPLQGFTVPGSKGTATISGLKPGVDYTITVYAVEYTYEHSGYYHRPISINYRTEIDKPSQHHHHHH | 53.4 | 5 | –
22 | 2451A10 (designed binder) MGVTDVPRDMEVVAATPTSLLISWQPPAVTYGYYRITYGETGGNSTLQQFTVPVYKGTATISGLKPGVDYTITVYAVEYPYDHSGYYHRPISINYRTEIDKPSQHHHHHH | 53.7 | 10.9 | –
23 | 2451C11 (designed binder) MGIVDVPRDLEVVAATPTSLLISWDPPAGAYGYYRITYGETGGNSPKQQFTVPGYKGTATISGLKPGVDYTITVYAVEYPYDHSGYYHRPISINYRTEIDKPSQHHHHHH | 70.3 | 9.7 | –
